Experimental data taken from US20250270319A1 (Alector, published 2025).

What was measured:
[1] = biological target: T1, human CD33 on primary human dendritic cells (human, UniProt P20138 18-364); test: cell-based or functional assay
[2] = biological target: T2, recombinant cynomolgus CD33 protein (NovoProtein) (cynomolgus); test: ELISA, plate coated with recombinant CD33
T2 construct: Bought protein; also called cyno CD33

[3] = biological target: T3, recombinant human CD33 protein (Sino Biologicals) (human, UniProt P20138 18-259); test: ELISA, plate coated with recombinant CD33
T3 construct: Bought protein; also called recombinant CD33
T3 sequence (P20138 18-259 limits assumed): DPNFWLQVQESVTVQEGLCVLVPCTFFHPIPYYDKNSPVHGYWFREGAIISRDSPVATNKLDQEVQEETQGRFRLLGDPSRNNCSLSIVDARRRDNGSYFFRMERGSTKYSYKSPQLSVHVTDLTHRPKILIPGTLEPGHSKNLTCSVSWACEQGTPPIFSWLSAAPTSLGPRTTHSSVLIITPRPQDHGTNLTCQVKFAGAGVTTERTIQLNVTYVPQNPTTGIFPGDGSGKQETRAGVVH

[4] = biological target: T1, human CD33 on primary human dendritic …; test: cell-based or functional assay; remark: listed apart in the source

T1 sequence (P20138 18-364): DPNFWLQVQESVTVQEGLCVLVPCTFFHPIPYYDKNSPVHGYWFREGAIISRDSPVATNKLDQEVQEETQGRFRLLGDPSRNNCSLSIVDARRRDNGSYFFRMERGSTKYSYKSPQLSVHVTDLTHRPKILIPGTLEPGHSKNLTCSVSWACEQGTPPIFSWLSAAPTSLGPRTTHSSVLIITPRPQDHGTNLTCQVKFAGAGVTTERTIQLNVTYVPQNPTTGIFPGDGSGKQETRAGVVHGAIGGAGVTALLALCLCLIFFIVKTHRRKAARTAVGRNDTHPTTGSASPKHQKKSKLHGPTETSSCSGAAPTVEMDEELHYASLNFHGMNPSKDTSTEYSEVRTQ
T2 sequence (chain, as listed by the source limits assumed): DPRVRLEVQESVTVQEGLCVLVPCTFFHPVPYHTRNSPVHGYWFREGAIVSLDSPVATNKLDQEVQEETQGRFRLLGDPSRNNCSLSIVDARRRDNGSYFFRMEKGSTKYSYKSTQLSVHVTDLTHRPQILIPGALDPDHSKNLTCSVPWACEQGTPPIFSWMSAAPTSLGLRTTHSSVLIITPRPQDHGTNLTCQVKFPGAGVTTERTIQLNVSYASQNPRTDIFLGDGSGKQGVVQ

Binder	Fold increase in potency compared to 6C7H5 [1] [fold]	Receptor downregulation, (EC50) (pM) [1] [pM]	EC50 [2] [nM]	Relative maximal binding (cyno/human) [2]	Relative potency (human/cyno) [2]	EC50 [3] [nM]	Fold change in potency from IgG1 [4] [fold]	Maximal downregulation (% CD33 remaining) [4] [% CD33 remaining]	Receptor downregulation, (pM, EC50) [4] [pM]
anti-CD33 antibody 6C7H37 (antibody, V domains shown, VH/VL only) VH: EVQLVESGGGLVQPGGSLRLSCAASGFTFSEYAMLWVRQAPGKGLEWVGEIRLKSNNYVTNYAASVKGRFTISRDDSKNSVYLQMNSLKTEDTGVYYCTRAGYYVPFTYWGQGTLVTVSS VL: QLMLTQSPSASASLGASVKLTCTLSSQHSTYTIEWYQQQPGKGPRYLMELKKEGSHSTGDGIPDRFSGSSSGAERYLTISSLQSEDEADYYCGVGHTIKEQFVYVFGGGTKLTVL	0.7	59.3	5.62	0.45	0.05	0.26			
6C7H8 IgG1 LALAPS (antibody, V domains shown) VH: EVQLVESGGGLVQPGGSLRLSCAGSGFTFSNYCMNWVRQAPGKGLEWVAEIRLKSNNYVTNYAASVKGRFTISRDDSKNSVYLQMNSLKTEDTGVYYCTRAGYYVPFAYWGQGTLVTVSS VL: QLVLTQSPSASASLGASVKLTCTLSSQHSTYTIEWYQQQPEKGPRYLMELKKEGSHSTGDGIPDRFSGSSSGAERYLTISSLQSEDEADYYCGVGDTIKEQFVYVFGGGTKLTVL							0.93	67.4	83.7
6C7H10 IgG2 (antibody) chain 1: EVQLVESGGGLVQPGGSLRLSCAASGFTFSEYAMNWVRQAPGKGLEWVGEIRLKSNNYVTNYAASVKGRFTISRDDSKNSVYLQMNSLKTEDTGVYYCTRAGYYVPFAYWGQGTLVTVSSASTKGPSVFPLAPCSRSTSESTAALGCLVKDYFPEPVTVSWNSGALTSGVHTFPAVLQSSGLYSLSSVVTVPSSNFGTQTYTCNVDHKPSNTKVDKTVERKCCVECPPCPAPPVAGPSVFLFPPKPKDTLMISRTPEVTCVVVDVSHEDPEVQFNWYVDGVEVHNAKTKPREEQFNSTFRVVSVLTVVHQDWLNGKEYKCKVSNKGLPAPIEKTISKTKGQPREPQVYTLPPSREEMTKNQVSLTCLVKGFYPSDIAVEWESNGQPENNYKTTPPMLDSDGSFFLYSKLTVDKSRWQQGNVFSCSVMHEALHNHYTQKSLSLSPGK chain 2: QLVLTQSPSASASLGASVKLTCTLSSQHSTYTIEWYQQQPEKGPRYLMELKKEGSHSTGDGIPDRFSGSSSGAERYLTISSLQSEDEADYYCGVGDTIKEQFVYVFGGGTKLTVL							1.01	24.2	772
anti-CD33 antibody 6C7H50 (antibody, V domains shown, VH/VL only) VH: EVQLVESGGGLVQPGGSLRLSCAASGFTFSEYDMLWVRQAPGKGLEWVGEIRLKSNNYVTNYAASVKGRFTISRDDSKNSVYLQMNSLKTEDTGVYYCTRAGYYVPFAYWGQGTLVTVSS VL: QLMLTQSPSASASLGASVKLTCTLSSQHSTYTIEWYQQQPGKGPRYLMELKKEGSHSTGDGIPDRFSGSSSGAERYLTISSLQSEDEADYYCGVGHTIKEQFVYVFGGGTKLTVL	0.7	57.8		0.21		0.22			
anti-CD33 antibody 6C7H47 (antibody, V domains shown, VH/VL only) VH: EVQLVESGGGLVQPGGSLRLSCAGSGFTFSNYEMNWVRQAPGKGLEWVAEIRLKSNNYVTNYAASVKGRFTISRDDSKNSVYLQMNSLKTEDTGVYYCTRAGYYVPFAYWGQGTLVTVSS VL: QLMLTQSPSASASLGASVKLTCTLSSQHSTYTIEWYQQQPGKGPRYLMELKKEGSHSTGDGIPDRFSGSSSGAERYLTISSLQSEDEADYYCGVGHTIKEQFVYEFGGGTKLTVL	0.7	59	0.42	0.43	0.52	0.22			
anti-CD33 antibody 6C7H52 (antibody, V domains shown, VH/VL only) VH: EVQLVESGGGLVQPGGSLRLSCAASGFTFSEYAMLWVRQAPGKGLEWVGEIRLKSNNYVTNYAASVKGRFTISRDDSKNSVYLQMNSLKTEDTGVYYCTRAGYYVPFAYWGQGTLVTVSS VL: QLMLTQSPSASASLGASVKLTCTLSSQHSTYTIEWYQQQPGKGPRYLMELKKEGSHSTGDGIPDRFSGSSSGAERYLTISSLQSEDEADYYCGVGHTIKEQFVYVFGGGTKLTVL	0.9	47.7	1.7	0.47	0.14	0.23			

The next lines start with the values.

Fold increase in potency compared to 6C7H5 [1] [fold]	Receptor downregulation, (EC50) (pM) [1] [pM]	EC50 [2] [nM]	Relative maximal binding (cyno/human) [2]	Relative potency (human/cyno) [2]	EC50 [3] [nM]	Fold change in potency from IgG1 [4] [fold]	Maximal downregulation (% CD33 remaining) [4] [% CD33 remaining]	Receptor downregulation, (pM, EC50) [4] [pM]	Binder
0.9	49.8		0.11		0.17				anti-CD33 antibody 6C7H43 (antibody, V domains shown, VH/VL only) VH: EVQLVESGGGLVQPGGSLRLSCAASGFTFSEYDMLWVRQAPGKGLEWVGEIRLKSNNYVTNYAASVKGRFTISRDDSKNSVYLQMNSLKTEDTGVYYCTRAGYYVPFAYWGQGTLVTVSS VL: QLMLTQSPSASASLGASVKLTCTLSSQHSTYTIEWYQQQPGKGPRYLMELKKEGSHSTGDGIPDRFSGSSSGAERYLTISSLQSEDEADYYCGVGHTIKEQFVYEFGGGTKLTVL
1	44.5		0.31		0.15				anti-CD33 antibody 6C7H45 (antibody, V domains shown, VH/VL only) VH: EVQLVESGGGLVQPGGSLRLSCAASGFTFSEYAMLWVRQAPGKGLEWVGEIRLKSNNYVTNYAASVKGRFTISRDDSKNSVYLQMNSLKTEDTGVYYCTRAGYYVPFAYWGQGTLVTVSS VL: QLMLTQSPSASASLGASVKLTCTLSSQHSTYTIEWYQQQPGKGPRYLMELKKEGSHSTGDGIPDRFSGSSSGAERYLTISSLQSEDEADYYCGVGHTIKEQFVYEFGGGTKLTVL
1.2	35.4	25.6	0.39	0.01	0.18				anti-CD33 antibody 6C7H53 (antibody, V domains shown, VH/VL only) VH: EVQLVESGGGLVQPGGSLRLSCAGSGFTFSNYEMNWVRQAPGKGLEWVAEIRLKSNNYVTNYAASVKGRFTISRDDSKNSVYLQMNSLKTEDTGVYYCTRAGYYVPFAYWGQGTLVTVSS VL: QPVLTQSPSASASLGASVKLTCTLSSQHSTYTIEWYQQQPEKGPRYLMELKKEGSHSTGDGIPDRFSGSSSGAERYLTISSLQSEDEADYYCGVGVTIKEQFVYVFGGGTKLTVL
1.6	27	4.87	0.36	0.04	0.21				anti-CD33 antibody 6C7H38 (antibody, V domains shown, VH/VL only) VH: EVQLVESGGGLVQPGGSLRLSCAASGFTFSEYAMLWVRQAPGKGLEWVGEIRLKSNNYVTNYAASVKGRFTISRDDSKNSVYLQMNSLKTEDTGVYYCTRAGYYVPFTYWGQGTLVTVSS VL: QPMLTQSPSASASLGASVKLTCTLSSQHSTYTIEWYQQQPGKGPRYLMELKKEGSHSTGDGIPDRFSGSSSGAERYLTISSLQSEDEADYYCGVGLTIKEQFVYVFGGGTKLTVL
1	42.4		0.08		0.19				anti-CD33 antibody 6C7H51 (antibody, V domains shown, VH/VL only) VH: EVQLVESGGGLVQPGGSLRLSCAASGFTFSEYAMLWVRQAPGKGLEWVGEIRLKSNNYVTNYAASVKGRFTISRDDSKNSVYLQMNSLKTEDTGVYYCTRAGYYVPFAYWGQGTLVTVSS VL: QPVLTQSPSASASLGASVKLTCTLSSQHSTYTIEWYQQQPEKGPRYLMELKKEGSHSTGDGIPDRFSGSSSGAERYLTISSLQSEDEADYYCGVGVTIKEQFVYVFGGGTKLTVL
0.9	45.7		0.09		0.18				anti-CD33 antibody 6C7H44 (antibody, V domains shown, VH/VL only) VH: EVQLVESGGGLVQPGGSLRLSCAASGFTFSEYDMLWVRQAPGKGLEWVGEIRLKSNNYVTNYAASVKGRFTISRDDSKNSVYLQMNSLKTEDTGVYYCTRAGYYVPFAYWGQGTLVTVSS VL: QPMLTQSPSASASLGASVKLTCTLSSQHSTYTIEWYQQQPGKGPRYLMELKKEGSHSTGDGIPDRFSGSSSGAERYLTISSLQSEDEADYYCGVGLTIKEQFVYVFGGGTKLTVL
1.1	39.4		0.08		0.2				anti-CD33 antibody 6C7H42 (antibody, V domains shown, VH/VL only) VH: EVQLVESGGGLVQPGGSLRLSCAASGFTFSEYDMLWVRQAPGKGLEWVGEIRLKSNNYVTNYAASVKGRFTISRDDTKNSVYLQMNSLKTEDTGVYYCTRAGYYVPFAYWGQGTLVTVSS VL: QPMLTQSPSASASLGASVKLTCTLSSQHSTYTIEWYQQQPGKGPRYLMELKKEGSHSTGDGIPDRFSGSSSGAERYLTISSLQSEDEADYYCGVGLTIKEQFVYVFGGGTKLTVL
0.8	56.3	1.19	0.53	0.14	0.17				anti-CD33 antibody 6C7H48 (antibody, V domains shown, VH/VL only) VH: EVQLVESGGGLVQPGGSLRLSCAGSGFTFSNYEMNWVRQAPGKGLEWVAEIRLKSNNYVTNYAASVKGRFTISRDDSKNSVYLQMNSLKTEDTGVYYCTRAGYYVPFAYWGQGTLVTVSS VL: QPMLTQSPSASASLGASVKLTCTLSSQHSTYTIEWYQQQPGKGPRYLMELKKEGSHSTGDGIPDRFSGSSSGAERYLTISSLQSEDEADYYCGVGLTIKEQFVYVFGGGTKLTVL
0.7	61.7	16.8	0.23	0.01	0.19				anti-CD33 antibody 6C7H46 (antibody, V domains shown, VH/VL only) VH: EVQLVESGGGLVQPGGSLRLSCAASGFTFSEYAMLWVRQAPGKGLEWVGEIRLKSNNYVTNYAASVKGRFTISRDDSKNSVYLQMNSLKTEDTGVYYCTRAGYYVPFAYWGQGTLVTVSS VL: QPMLTQSPSASASLGASVKLTCTLSSQHSTYTIEWYQQQPGKGPRYLMELKKEGSHSTGDGIPDRFSGSSSGAERYLTISSLQSEDEADYYCGVGLTIKEQFVYVFGGGTKLTVL
